The target of test [1] is HA head of A/Florida/904/2000 (H1N1) (Influenza A virus A/Florida/904/2000 …, UniProt Q91R26, strain). The experiment in a line: BLI.
For test [2], the target named is T1, HA head domain of A/Texas/50/2012 (H3N2) (Influenza A virus A/Texas/50/2012 (H3N2), strain). The experiment in a line: BLI.
The target in test [3] is T1, HA head domain of A/Texas/50/2012 (H3N2). Put plainly: crystal structure.

B1: K03.12 Fab (tag removed, for binding studies) (Fab, V domains shown)
VH: EVQLVQSGAEVKKPGASVKVSCKTSGYTFTAYYLHWVRQAPGQGFEWMAWINPNTGDTNYAQKFQGRVTLSRDTSITTAYMELTRLRSDDTAVYYCAKDLTLMYVFDSGWARGAHDYYGMDVWGQGTTVAVSG
VL: PSALTQPASVSGSPGQSVTISCTGTNSDVGTFDLVSWYQQYPGKAPKLIIYEGSRRPSGVSDRFSGSKSGNTASLTISGLQAEDEADYYCSSYAGSVVFGGGTKLTVL
Regarding B1, the binding result in test [1] and in test [2] was “binds” each time.

B2: K03.12 Fab for crystallization (noncleavable 6xHis tag) (Fab, V domains shown)
VH: EVQLVQSGAEVKKPGASVKVSCKTSGYTFTAYYLHWVRQAPGQGFEWMAWINPNTGDTNYAQKFQGRVTLSRDTSITTAYMELTRLRSDDTAVYYCAKDLTLMYVFDSGWARGAHDYYGMDVWGQGTTVAVSG
VL: PSALTQPASVSGSPGQSVTISCTGTNSDVGTFDLVSWYQQYPGKAPKLIIYEGSRRPSGVSDRFSGSKSGNTASLTISGLQAEDEADYYCSSYAGSVVFGGGTKLTVL
Take B2: the binding result in test [3] is reported as “binds”.

B3: K03.1-12 lineage unmutated common ancestor (UCA) Fab (tag removed, for binding studies) (Fab, V domains shown)
VH: not shown
VL: QSALTQPASVSGSPGQSITISCTGTSSDVGSYNLVSWYQQHPGKAPKLMIYEGSKRPSGVSNRFSGSKSGNTASLTISGLQAEDEADYYCCSYAGSVVFGGGTKLTVL
With B3, the binding result in test [1] and in test [2] was “binds” in each case.

B4: I-11 Fab (inferred evolutionary intermediate of the K03.1-12 lineage) (Fab, V domains shown)
VH: not shown
VL: QSALTQPASVSGSPGQSVTISCTGTSSDVGSYNLVSWYQQHPGKAPKLMIYEGSKRPSGVSNRFSGSKSGNTASLTISGLQAEDEADYYCCSYAGSVVFGGGTKLTVL
For B4, the binding result in test [1] and in test [2] was “binds” in each case.
